Changes are numbered by the printed parent chain.
B1: 333 (protein)
chain: LDNGLARTPTMGWLHWERFMCNLDCQEEPDSCISEKLFMEMAERMVSEGWKDAGYEYLCIDDCWMAPQRDSEGRLQADPQRFPHGIRQLANYVHSKGLKLGIYADVGNKTCAGFPGSFGYYDIDAQTFADWGVDLLKFDGCYCDSLENLADGYKHMSLALNRTGRSIVYSCEWPLYMWPFQKPNYTEIRQYCNHWRNFADIDDSWASIKSILDWTSFNQERIVDVAGPGGWNDPDMLVIGNFGLSWNQQVTQMALWAIMAAPLFMSNDLRHISPQAKALLQDKDVIAINQDPLGKQGYQLRQGDNFEVWERPLSGDAWAVAIINRQEIGGPRSYTIPVASLGKGVACNPGCFITQLLPVKRKLGFYNWSSRLKSHINPTGTVLLQLENTMQMSLKDLL
modifications: Synthetic Polypeptide sequence of Variant No. 333 of mature Human GLA
B2: 342 (protein)
chain: B1 chain with K96I, F217R, N247D, Q302K, G350A, S369T
modifications: Synthetic Polypeptide sequence of Variant No. 342 of mature Human GLA
B3: 335 (protein)
chain: B1 chain with N247D, P337A, K343G, K362Q
modifications: Synthetic Polypeptide sequence of Variant No. 335 of mature Human GLA
B4: 338 (protein)
chain: B1 chain with K96I, F217R, N247D, D316L, P337A, K362Q, S369T
modifications: Synthetic Polypeptide sequence of Variant No. 338 of mature Human GLA
B5: 337 (protein)
chain: B1 chain with N247D, Q302K, D316L, P337A, K343D, G350A, S369T
modifications: Synthetic Polypeptide sequence of Variant No. 337 of mature Human GLA
B6: 336 (protein)
chain: B1 chain with N247D, Q302K, D316L, P337A
modifications: Synthetic Polypeptide sequence of Variant No. 336 of mature Human GLA
B7: 339 (protein)
chain: B1 chain with K96I, F217R, N247D, D316L, P337A, K362Q, S369T
modifications: Synthetic Polypeptide sequence of Variant No. 339 of mature Human GLA
B8: 341 (protein)
chain: B1 chain with K96I, F217R, N247D, D316L, P337A, G350A
modifications: Synthetic Polypeptide sequence of Variant No. 341 of mature Human GLA
B9: 340 (protein)
chain: B1 chain with K96I, F217R, N247D, D316L, P337A, K362Q
modifications: Synthetic Polypeptide sequence of Variant No. 340 of mature Human GLA
B10: 334 (protein)
chain: B1 chain with N247D, P337A, K362Q
modifications: Synthetic Polypeptide sequence of Variant No. 334 of mature Human GLA

How the values were obtained:
Type in all cases: biochemical
[1] = HTP-analysis of supernatants pretreated with bovine serum (MUGal hydrolysis); conditions: activity of the variant/activity of Rd3BB (SEQ ID NO: 13), yeast culture supernatant
Method in brief: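 Yeast INVSc1 culture supernatants containing secreted GLA variants were mixed with bovine serum (20:80) and held 1 h at 37° C. Serum-treated samples then reacted with MUGal (4 mM stock) in citrate/McIlvaine buffer (pH 4.3/4.8) for 180 min at 37° C., were quenched with sodium carbonate, and read by fluorescence (Ex 355, Em 448 nm).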

[2] = HTP-analysis of supernatants pretreated with acid (MUGal hydrolysis); conditions: challenge at pH 4.0; activity of the variant/activity of Rd3BB (SEQ ID NO: 13); yeast culture supernatant
Method in brief: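 Yeast INVSc1 supernatant, GLA variants; acid challenge: McIlvaine pH 3.3-4.3, 37° C., 1-3 h. Assay: MUGal in McIlvaine pH 4.8 plus citrate pH 4.3, 37° C., 30-180 min, Na2CO3 stop, Ex 355/Em 448 nm.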

[3] = HTP-analysis of yeast culture supernatants, no challenge (MUGal hydrolysis); conditions: activity of the variant/activity of Rd3BB (SEQ ID NO: 13), yeast culture supernatant
Method in brief: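 Activity read as 4-methylumbelliferyl α-D-galactopyranoside hydrolysis: fluorescence (355/448 nm) after sodium carbonate stop, following 30-180 min at 37° C with 2 mM MUGal stock at pH 4.6–4.8. Enzyme source is unchallenged culture supernatant of INVSc1 yeast expressing GLA variants, grown 66-84 h at 30° C.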

[4] = HTP-analysis of supernatants pretreated with base (MUGal hydrolysis); conditions: challenge at pH 8.2; activity of the variant/activity of Rd3BB (SEQ ID NO: 13); yeast culture supernatant
Method in brief: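 Fluorescence of released 4-MU (Ex 355 nm, Em 448 nm) after carbonate quench reports MUGal hydrolysis by GLA variants secreted from INVSc1 yeast. Before the acidic (pH 4.3-4.8) 30-180 min reaction at 37° C, supernatants had been pre-incubated at pH 7.0-9.7 for 1-18 h at 37° C.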

Molecule	Relative Activity of GLA Variants After Challenge with Serum [1]	Relative Activity of GLA Variants After Challenge at pH 4.0 [2]	Relative Activity of GLA Variants After No Challenge (NC) [3]	Relative Activity of GLA Variants After Challenge at pH 8.2 [4]
B1	+ (+ = 0.5 to 1.5 relative activity over Rd3BB (SEQ ID NO: 13))	++ (++ = >1.5 to 2.5 relative activity over Rd3BB (SEQ ID NO: 13))	++ (++ = >1.5 to 2.5 relative activity over Rd3BB (SEQ ID NO: 13))	++ (++ = >1.5 to 2.5 relative activity over Rd3BB (SEQ ID NO: 13))
B2	+++ (+++ = >2.5 relative activity over Rd3BB (SEQ ID NO: 13))	+++ (+++ = >2.5 relative activity over Rd3BB (SEQ ID NO: 13))	++ (++ = >1.5 to 2.5 relative activity over Rd3BB (SEQ ID NO: 13))	+++ (+++ = >2.5 relative activity over Rd3BB (SEQ ID NO: 13))
B3	+++ (+++ = >2.5 relative activity over Rd3BB (SEQ ID NO: 13))	+++ (+++ = >2.5 relative activity over Rd3BB (SEQ ID NO: 13))	++ (++ = >1.5 to 2.5 relative activity over Rd3BB (SEQ ID NO: 13))	+++ (+++ = >2.5 relative activity over Rd3BB (SEQ ID NO: 13))
B4	+++ (+++ = >2.5 relative activity over Rd3BB (SEQ ID NO: 13))	+++ (+++ = >2.5 relative activity over Rd3BB (SEQ ID NO: 13))	++ (++ = >1.5 to 2.5 relative activity over Rd3BB (SEQ ID NO: 13))	+++ (+++ = >2.5 relative activity over Rd3BB (SEQ ID NO: 13))
B5	++ (++ = >1.5 to 2.5 relative activity over Rd3BB (SEQ ID NO: 13))	++ (++ = >1.5 to 2.5 relative activity over Rd3BB (SEQ ID NO: 13))	+ (+ = 0.5 to 1.5 relative activity over Rd3BB (SEQ ID NO: 13))	++ (++ = >1.5 to 2.5 relative activity over Rd3BB (SEQ ID NO: 13))
B6	− (− = <0.5 relative activity to Rd3BB (SEQ ID NO: 13))	+ (+ = 0.5 to 1.5 relative activity over Rd3BB (SEQ ID NO: 13))	+ (+ = 0.5 to 1.5 relative activity over Rd3BB (SEQ ID NO: 13))	+ (+ = 0.5 to 1.5 relative activity over Rd3BB (SEQ ID NO: 13))
B7	+ (+ = 0.5 to 1.5 relative activity over Rd3BB (SEQ ID NO: 13))	+ (+ = 0.5 to 1.5 relative activity over Rd3BB (SEQ ID NO: 13))	+ (+ = 0.5 to 1.5 relative activity over Rd3BB (SEQ ID NO: 13))	++ (++ = >1.5 to 2.5 relative activity over Rd3BB (SEQ ID NO: 13))
B8	+ (+ = 0.5 to 1.5 relative activity over Rd3BB (SEQ ID NO: 13))	+ (+ = 0.5 to 1.5 relative activity over Rd3BB (SEQ ID NO: 13))	− (− = <0.5 relative activity to Rd3BB (SEQ ID NO: 13))	+ (+ = 0.5 to 1.5 relative activity over Rd3BB (SEQ ID NO: 13))
B9	+ (+ = 0.5 to 1.5 relative activity over Rd3BB (SEQ ID NO: 13))	+ (+ = 0.5 to 1.5 relative activity over Rd3BB (SEQ ID NO: 13))	+ (+ = 0.5 to 1.5 relative activity over Rd3BB (SEQ ID NO: 13))	+ (+ = 0.5 to 1.5 relative activity over Rd3BB (SEQ ID NO: 13))
B10	++ (++ = >1.5 to 2.5 relative activity over Rd3BB (SEQ ID NO: 13))	++ (++ = >1.5 to 2.5 relative activity over Rd3BB (SEQ ID NO: 13))	+ (+ = 0.5 to 1.5 relative activity over Rd3BB (SEQ ID NO: 13))	+++ (+++ = >2.5 relative activity over Rd3BB (SEQ ID NO: 13))

From US11278600B2, “Human alpha-galactosidase variants” (Codexis, Inc., priority 2014, dated 2022)
